Measured values published in the DeepSol protein solubility set.

Experiment: soluble on expression in E. coli; label from the status in PepcDB or PDB records

Sequence	soluble on expression in E. coli
MDDATEQEVFNRMQMTQFEEKRFELRETCPKCHQILSSELSRLWHQFVHMDAYNGFLDGKFQIQLPDFEFVRSNVIPCPFSTCSLLFLDLIDARFHYLLEHQSCQLFCCGVRFSDYKTALEHLQGTGSVETEAWDQQKHFLKPVYICNCCNRTWSSRSEYVAHLHGRDHMCPDPVCKYIFETNEKCIRHFFEQHYKHLFLDSRHLLLNYKDHMCVPHVNADFGTTRGFRATWQARIVNFLIEKS	not soluble
MGSDKIHHHHHHMADYQQMWANLGMDLEKHDVLCEVLPEAFGGVYLTQQDRPKGMDFYDFVVSEIHGVRPAEMLQHQKEGGKVFGTFCVYVPDEVVFAAGGIAAGLCGGSQFWVSGGEKVLPANTCPLIKASVGARLDKTCPFFLIPDMYVAENTCDGKKKAWEILAGEVPMHIIDIPQMKRERDVAAFAAEIRDFIGVVEKVTGKKINAESLGEAIKLINNKRRALQRVYNARKASPVPISGKDALLVTQINFYDDPARAAQMANNLADELEQRINNGTGVFPENAPRIMISGTPMAIPNWKLHHIVESLGAAIVVEESCTGTRYFENLVDETASTLDEQIRALAERYMKTNCACFTPNSARIDDIIRLADEYKVDGIIDTNLQFCNLYSTESYLIKQVMTERNLPIIHIETDYSEQDFEQLRTRVEAFLEMLRK	not soluble
MGSDKIHHHHHHMTIETIKRIIEEENVRFIRLQFTDINGTLKNLEITPDVFLESWEDGIMFDGSSIEGFVRIEESDMYLKPVLDTFAVLPWTVDGAKSARVICDVYTPDGKPFEGDPRYRLRRMMEKAEQLGYTPYAGPEMEFFILPINEKGEPVPEFLDHGGYFDLLPLSKVEEIRRDIAIALEKMGITVEATHHEVAPSQHEVDFRYDTFLRTADNAQTVKLVIKTMAIFHGYHATFMPKPFYGVNGSGMHVHMSLFRGDKNAFYDPDDPLGLSKELRYFVGGILKHAKALAAVTNPTINSYKRLVPGYEAPVYISWSVGNRSALIRIPKARGKATRLEYRSPDPSCNIYLAFAAILAAGLDGIINKIEPPAPVEENIYHMTSERREELNIESLPGSLKEAVEELKKDDVIIDALGEHIFEKFVEAAEKDWKEFSTYVTNWELQRYLYL	not soluble
MELINKDTLQIKEFISSLDSMLDGIESIVKHYKPHLNGERFLSNNEVSKKLNVSLRTLQEWRDTGLIPFIQIKGKIIYRQSDIDKLLQKHYFEGWKE	not soluble
MGSDKIHHHHHHMAYNDSTKQYQRMLASYTRTGIETAIPGTKEEGIMRYRTMIYTIVNESLSTSYPLTRQLLTAQEWDDTVHRYFSTHACTSPYLWRMPLEFYEYIQEEQSALLIKYPCLSDLLLFEWVEIEVFMMEDEEVLHKTEGAVETDALVLNPACAVQYFQYPVYAKRAAEITPADAAHYFMLTHRNPETGNVAFLEIAPMFARMFEWLTEEAMSVDQLISRFTEESQLALAADSRINIVSFFKNCLSKRIILGFN	not soluble
MVLSQRQRDELNRAIADYLRSNGYEEAYSVFKKEAELDMNEELDKKYAGLLEKKWTSVIRLQKKVMELESKLNEAKEEFTSGGPLGQKRDPKEWIPRPPEKYALSGHRSPVTRVIFHPVFSVMVSASEDATIKVWDYETGDFERTLKGHTDSVQDISFDHSGKLLASCSADMTIKLWDFQGFECIRTMHGHDHNVSSVSIMPNGDHIVSASRDKTIKMWEVQTGYCVKTFTGHREWVRMVRPNQDGTLIASCSNDQTVRVWVVATKECKAELREHRHVVECISWAPESSYSSISEATGSETKKSGKPGPFLLSGSRDKTIKMWDVSTGMCLMTLVGHDNWVRGVLFHSGGKFILSCADDKTLRVWDYKNKRCMKTLNAHEHFVTSLDFHKTAPYVVTGSVDQTVKVWECR	soluble
MGSDKIHHHHHHMSRYLEMLSLFGVAGAHPGGLAFSKAVLQKAAPSPDQPILDAGCGTGQTAAYLGHLLYPVTVVDKDPIMLEKAKKRFANEGLAIPAYQAELEHLPFSSESFSCVLSESVLSFSRLTSSLQEISRVLKPSGMLIGIEAALKKPMPPAEKKQMMDFYGFTCLHEESEWHKLLRSYGFQKTEAMSLLPEDMEFEPTTEMDLSQTIDPIYYDTLQTHYQLMQLYSEYMGHCIFIAYK	not soluble
MSVINKIVARRTQLSQSGRLVGDWIVENAEKAAQLTSQELAAQVKVSQSSIVKFTQRIGFKGYSEFKLALNEEIGRKHAMQSTPLHSDILADDPIAVISQKLVKAKTDAMFQTTNALSYEACHQAVKWLSEARRVQVVGIGGSALTAKDLSFKLLKLGITALSEQDSHVQIAVARTLSSEDVQIAISYSGERKEILVAAEAAKEQGAKVIALSAPGRSRLRGIADITFDTIANETEHRSSSIASRTAQNVITDLLFIILVQQRDESARQLISDISTDIKQILT	not soluble
MGHHHHHHSHMVETVSTKNTKNWHAPVVPAAWEAEAGESLEPWRWRLQWAGIASLHSSLGDRARLRLKKKKKKRKGHFPIQKSRKYVPFLKGICSSTPVGISRQVGQETEKRNKTQRQSIEKERGAQGTGALSLRGPAGALVSEFPQYLLIIIFTILARGV	not soluble
MTVGVGGSTPAQALERLRNMMDGAQPIGLASYRARIAAAQAWMGEHGIAAAYLHAGSNLRYFSGVQWHPSERLVGALLPAEGALEYLAPAFEEGTVRDFQVVDGAIHTWEEHQDPYRLLLDRLEALGVGERSTVALCPSLPFGMFERLRQQAPGRNFVSAAPLIDQGRMRKSAEELALMQRAKDMTLEVQKAAASILREGISTTEVAEFIHQAHRKVGAPGSTFCIVLFGAASAFPHGVKHAQVLKDGDMVLIDTGCQVHGYQSDITRSYVFGTPSARQREFWGMERDAQLAAFEAARLGQPCEAVDAAARRSLEANGLGPDYRLPGLPHRTGHGIGMDVHEGPYLVRGDRTPLDVGMCFSNEPMICVPGEFGIRLEDHFYMTKEGPRWFT	not soluble
GSHMNPLTQAVPKCQRWEKLQNSRCVCKMPYECGPSLDVCAQDERSKRILPLTVCKMHVLHCQGRNYTLTGRDSCTLPASAEKACGACPLWGKCDAESSKCVCREASECEEEGFSICVEVNGKEQTMSECEAGALRCRGQSISVTSIRPCAAETQ	soluble
MGKTLYEKVYDAHVAVAAEGETPILYIDRHLVHEVTSPQAFDGLREKGRKVRQVSKTFATMDHNVSTTTKDINASGEMARIQMETLSKNCEEFGVTLYDLNHKYQGIVHVMGPELGITLPGMTIVCGDSHTATHGAFGSLAFGIGTSEVEHVLATQTLKQARAKT	not soluble
MQERDKEPLQERFFRPHFLQAPGDMVAHEGRLCRLDCKVSGLPPPELTWLLNGQPVLPDASHKMLVRGTGVHSLLIDPLTQRDAGTYTCVATNKTGQNSFSLELTVVAKEVKKAPVILEKLQNSGVPEGHPVRLEGRVIGMPPPVFYWKKDNETIPFTRERISMHQDTTGYVCLLIQPAKKSDAGWYTLSAKNEAGIVSCTARLDIYAQWHQQIPTPISIRPSGSRYGSLTSKGLDIFSAFSSVESTMLYSCTSRSVVESDEL	not soluble
MPSAHSVKLRPLEREDLRYVHQLDNNASVMRYWFEEPYEAFVELSDLYDKHIHDQSERRFVVECDGEKAGLVELVEINHVHRRAEFQIIISPEYQGKGLATRAAKLAMDYGFTVLNLYKLYLIVDKENEKAIHIYRKLGFSVEGELMHEFFINGQYRNAIRMCIFQHQYLAEHKTPGQTLLKPTAQ	soluble
MKKAVVLLSGGMDSATTLAIARQSGFACYALSIDYGQRHVAELAAAARIGQSLQVSDHQFLKLDLAVLASSVLTDISATVPLHGTSTGIPVTYVPARNTIMLALALAWAEVLGSHDIFIGVTAVDYSGYPDCRRDYIDAFEKMANLATKAGREGMVLTVHAPLIDLPKREIIQCGMELGIDYGLTVSCYQADEAGYACGQCDACHIRRAGFEAADIPDPTCYRNKQIS	not soluble
MRIYLIGFMCSGKSTVGSLLSRSLNIPFYDVDEEVQKREGLSIPQIFEKKGEAYFRKLEFEVLKDLSEKENVVISTGGGLGANEEALNFMKSRGTTVFIDIPFEVFLERCKDSKERPLLKRPLDEIKNLFEERRKIYSKADIKVKGEKPPEEVVKEILLSLEGNALGG	soluble
MSTNPGPAEGANQVMAQEHSAGAVQFTAHNVRLDDGTLTIPESSRTLDESSWFISARGILETVFPGDKSHLRLADVGCLEGGYAVGFARMGFQVLGIEVRELNMAACNYIKSKTNLPNLRFVHDNALNIANHGLFDTVFCCGLFYHLENPKQYLETLSSVTNKLLILQTHFSIINRSDKWLRLPTTARQLTDRLLRRPAPVKFMLSAPTEHEGLPGRWFTEFSDDRSFGQRDTAKWASWDNRRSFWIQREHLLQAIKDVGVDLVMEEYDNLEPSIAESLLGGSYAANLRGTFIGIKTR	soluble
HMFPARWHNYLQCGQVIKDSNLICFKTPLRPELFAYVTSEEDVWTAEQIVKQNPSIGAIIDLTNTSKYYDGVHFLRAGLLYKKIQVPGQTLPPESIVQEFIDTVKEFTEKCPGMLVGVHCTHGINRTGYMVCRYLMHTLGIAPQEAIDRFEKARGHKIERQNYVQDLLI	soluble
MCGRIAQKSAPEDYVEILWPNARLIFDDVAGPRYNIPPGTKPLTMHRLAGGFEVDRQWWTWRPSGSKYAMNCARLDKILGNKWPWKLLTARGRILVPADGWYEWKALDSSPKPAKQPYFIHGAGPLLFAGLSAWRPGAEMDEAHGFAIVTDDAQGGMVDVHDRRPVALPPELAREWVDPATPVARAMEILRAGLPETAFSWHPVRQEVGSSKYQLPDAIDPILEHHHHHH	soluble
MSLVRSKAPLRLGLAGGGSDVSPYSDIYGGLILNATINLYAYCTIEETNSGRIEINAYDAQCCKSYLSMSQLEIDGEASLIKGVYNRIIRDYRLEPKSFKITTYNDAPAGSGLGTSSTMVVCILKAFIEWLSLPLGDYETSRLAYEIERKDLGLSGGKQDQYAAAFGGFNYMEFLQNDLVIVNPLKMKRWIVDELESSMVLYFTGRSRSSAAIINEQKKNTSEGNQTAIEAMHKIKQSAIDTKLALLKGDVGEFARILGEGWENKKKMAGAITNPMIQEAFDVATGAGAMAGKVSGAGGGGFIMFVVEPTRKEEVVRALNNLNGFVMPFQFIDDGAHGWKIYSTDKVQKEGHHHHHH	soluble
LVPRGSDSSRRQYQEKYKQVEQYMSFHKLPADFRQKIHDYYEHRYQGKMFDEDSILGELNGPLREEIVNFNNRKLVASMPLFANADPNFVTAMLTKLKFEVFQPGDYIIREGTIGKKMYFIQHGVVSVLTKGNKEMKLSDGSYFGEISLLTRGRRTASVRADTYSRLYSLSVDNFNEVLEEYPMMRRAFETVAIDRLDRIGKKN	soluble
MGSDKIHHHHHHMTTFEVKDTAHVAFKIINLRCPHCHHAASFSGFDGCSDLRYNVQAKRHPSGATTNTFDIAGMRRCPNTTCRKLVFVMEDKYGEIESFPPEVIDFDASNLPSDILSSLEEAIRCHAANCYRASALMVRRTLEELCDNKSATGKDLKTRLAALGTVAVIPSELLSAADELRILGNDAAHIEAKDYDSIGKEESEIAIELAKELLKAVYQYTSLVARLTALKKPKQ	not soluble
MGSDKIHHHHHHMPSIFEKYQLKQVINASGRMTALGVSTPRPEVIDAAMAGMNQYFEMKDLVNKTGEYIAKLLEVEGATVVSCASAGLAQSVAAVLVQDSDWLLENLHVTPIENNEIVLPKGHNVNFGAPVGTMVALGGGKLVEAGYANECSAAQLAAAITPRTAAILYIKSHHCVQKSMLSVEQAAVVARTHNLPLIVDAAAEEDLQCYYRVGADLVIYSGAKAIEGPTSGLVIGKTQYVEWVKRQSAGIGRAMKVGKEGIVGLTCAIELYLRAQKESGAEMVEKMAPFIDTLNTFNGVSARVVWDSAGRDIARTEIKFDEAVTGIATGELVDALKQGEYAIYFRGYKANEGIIEADVRSVDRAQLAIVARRIGEVINQEKQA	not soluble
